Measured values reported in patent US20030036169A1.

molecular target: APP695 (human) (UniProt P05067); assay: cell-based or functional assay

steady-state levels of transfected APP695 in HEK293 cells (quantitative immunoblot)	Binder
< 3 fold	Mint 2 (protein) MAHRKRQSTASSMLDHRARPGPIPHDQEPENEDTELPLESYVPTGLELGTLRPDSPTPEEQECHNHSPDGDSSSDYVNNTSEEEDYDEGLPEEEEGVTYYIRYCPEDDSYLEGMDCNGEEYLAHGAHPVDTDECQEAVEDWTDSVGPHTHSHGAENSQEYPDSHLPIPEDDPTVLEVHDQEEDGHYCPSKESYQDYYPPETNGNTGGASPYRMRRGDGDLEEQEEDIDQIVAEIKMSLSMTSITSASEASPEHMPELDPGDSTEACSPSDTGRGPSRQEARPKSLNLPPEVKHSGDPQRGLKTKTRTPEERPKWPQEQVCNGLEQPRKQQRSDLNGPTDNNNIPETKKVASFPSFVAVPGPCEPEDLIDGIIFAANYLGSTQLLSERNPSKNIRMMQAQEAVSRVKRMQKAAKIKKKANSEGDAQTLTEVDLFISTQRIKVLNADTQETMMDHALRTISYIADIGNIVVLMARRRMPRSASQDCIETTPGAQEGKKQYKMICHVFESEDAQLIAQSIGQAFSVAYQEFLRANGINPEDLSQKEYSDIINTQEMYNDDLIHFSNSENCKELQLEKHKGEILGVVVVESGWGSILPTVILANMMNGGPAARSGKLSIGDQIMSINGTSLVGLPLATCQGIIKGLKNQTQVKLNIVSCPPVTTVLIKRPDLKYQLGFSVQNGIICSLMRGGIAERGGVRVGHRIIEINGQSVVATAHEKIVQALSNSVGEIHMKTMPAAMFRLLTGQETPLYI
< 3 fold	Mint 1 (protein) MNHLEGSAEVEVADEAPGGEVNESVEADLEHPEVEEEQQPSPPPPAGHAPEDHRAHPAPPPPPPPQEEEEERGECLARSASTESGFHNHTDTAEGDVLAAARDGYEAERAQDADDESAYAVQYRPEAEEYTEQAEAEHAEAAQRRALPNHLHFHSLEHEEAMNAAYSGYVYTHRLFHRAEDEPYAEPYADYGGLQEHVYEEIGDAPELEARDGLRLYERERDEAAAYRQEALGARLHHYDERSDGESDSPEKEAEFAPYPRMDSYEQEEDIDQIVAEVKQSMSSQSLDKAAEDMPEAEQDLERAPTPGGGHPDSPGLPAPAGQQQRVVGTPGGSEVGQRYSKEKRDAISLAIKDIKEAIEEVKTRTIRSPYTPDEPKEPIWVMRQDISPTRDCDDQRPVDGDSPSPGSSSPLGAESSITPLHPGDPTEASTNKESRKSLASFPTYVEVPGPCDPEDLIDGIIFAANYLGSTQLLSDKTPSKNVRMMQAQEAVSRIKTAQKLAKSRKKAPEGESQPMTEVDLFISTQRIKVLNADTQEPMMDHPLRTISYIADIGNIVVLMARRRMPRSNSQENVEASHPSQDAKRQYKMICHVFESEDAQLIAQSIGQAFSVAYQEFLRANGINPEDLSQKEYSDLLNTQDMYNDDLIHFSKSENCKDVFIEKQKGEILGVVIVESGWGSILPTVIIANMMHGGPAEKSGKLNIGDQIMSINGTSLVGLPLSTCQSIIKGLKNQSRVKLNIVRCPPVTTVLIRRPDLRYQLGFSVQNGIICSLMRGGIAERGGVRVGHRIIEINGQSVVATPHEKIVHILSNAVGEIHMKTMPAAMYRLLTAQEQPVYI
< 3 fold	Mint 3 (protein, rat, UniProt O70248 1-569, looked up) MEFLPEPQHPPGPPTMDLEEPKGPEVPSEDHPSNTQWALGPRGPDTLSEMELDTSSVRALVQQLEALPSDLGGQFPDGAPCPLHIATGQGLATQENLDAGGLLSAEAGGDNLLGLLRCEASLPAQSVPPDPAQAAPRLLQPPEDPGGDPGWMEGTEPADNRSSSSSPELWLETAPLVTHRDPPVGTQSQETLASCPAVSEVPGPCGQEELMDGVLFGAKYLGSTQLLSERNPPPSTRMGQAQEAMDRVKAPEGETQPMTEVDIFISTKRVKVLAADSQDALMDHALQTISYIADIGPVLVLMARRRLAKRTTSQDRQRQLYKMLCHVFHSEDAQLIAQAIGQAFSIAYSQFLQENRIDPSQVGMQPSASASHPHNGDLDHFCNSQNCREVCIQKRPGEGLGVALVESGWGSLLPTAVIANLLHGGPAERCGALSIGDRVTAINGTSLVGLSLAACQAAVREVRRHSSVTLSIIHCPPVTTAVIHRPHVREQLGFCVENGIICSLLRGSAAERGGVRVGHRIIEVNGQSVVAMPHARIIQLLTETREIHIKTMPAATYRLLTGQEQPVYL
